Experiment: soluble on expression in E. coli; label from the status in PepcDB or PDB records

Row | Sequence | soluble on expression in E. coli
1 | MNNLISQDKRISSNPVAKIIYGDPVTFLPHLPRKSVVHCSKIWSCRKRITVEYLQHIVEQKNGKERVPILWHFLQKEAELRLVKFLPEILALQRDLVKQFQNVQQVEYSSIRGFLSKHSSDGLRQLLHNRITVFLSTWNKLRRSLETNGEINLPKDYCSTDLDLDTEFEILLPRRRGLGLCATALVSYLIRLHNEIVYAVEKLSKENNSYSVDAAEVTELHVISYEVERDLTPLILSNCQYQVEEGRETVQEFDLEKIQRQIVSRFLQGKPRLSLKGIPTLVYRHDWNYEHLFMDIKNKMAQDSLPSSVISAISGQLQSYSDACEVLSVVEVTLGFLSTAGGDPNMQLNVYTQDILQMGDQTIHVLKALNRCQLKHTIALWQFLSAHKSEQLLRLHKEPFGEISSRYKADLSPENAKLLSTFLNQTGLDAFLLELHEMIILKLKNPQTQTEERFRPQWSLRDTLVSYMQTKESEILPEMASQFPEEILLASCVSVWKTAAVLKWNREMR | not soluble
2 | MSLEKYGNVNDFLDDDLVKNGNPDVYIVVGENSATPDVTSANKISAKIGTMTYTEKVVEDTSTTGYQIIGESESINLLDGTDKLDSAGTKKSWILVIGADDSYSDYFDDDEGNSFSYSEFSEADKTRSLGELGYLLKLYDIDPKNHFESDDDASELVFVRITDSDKNANSQTYNIEKDMVYVSIVYPNQISAFKLAKELEEGYEIPFLGDKYRIVKIDEDDDIIYLGTASYEGTIAHNEYISSGEYQVVLGEILENEDEYRVEISVLRNGNMIEEHTETEGHHHHHH | soluble
3 | MRETSSREDTNNIGKAPEMSGGTIMDTMTSLPHQNDQNVIRHLTNLVKSPASGDDDIKKKEDSIMELGNILAQNKQTEELRNMIEQTRPFLVSLGKAKAAKLVRDLVDLCLKIDDQDGDIKVGLVKECIQWATEQNRTFLRQTLTARLVRLYNDLQRYTQALPLAADLIRELKKVDDKDVLVEVELEESKAYYNLSNIGRARASLTGARTTANAIYVNPRMQAALDLQSGILHAADEKDFKTAFSYFYEAFEGYDSVDEKVSALTALKYMLLCKVMLDLPDEVNSLLSAKLALKYNGSDLDAMKAIAAAAQKRSLKDFQVAFGSFPQELQMDPVVRKHFHSLSERMLEKDLCRIIEPYSFVQIEHVAQQIGIDRSKVEKKLSQMILDQKLSGSLDQGEGMLIVFEIAVPDEAYQTALDTIHAMGEVVDALYSNASKIN | not soluble
4 | MTKASDAVKGIINSNNIYTLLLNTGLVNYTKLAREIKSQVDFLTGKKVKINTIVKALTNIEIKSKPKDILLILKQSILTLEYNYKEITTENRNKIPDDAILVIKESNGYSAIIKTTDGNSLVIAKILLPPGSCTTAGITLLITEFLEINGVSVRNIYRLSKEIWIIVDSESAGKAADALNRLLYKSNDRESSPVSLVD | not soluble
5 | MVSEEEEEEDGDAEETQDSEDDEEDEMEEDDDDSDYPEEMEDDDDDASYCTESSFRSHSTYSSTPGRRKPRVHRPRSPILEEKDIPPLEFPKSSEDLMVPNEHIMNVIAIYEVLRNFGTVLRLSPFRFEDFCAALVSQEQCTLMAEMHVVLLKAVLREEDTSNTTFGPADLKDSVNSTLYFIDGMTWPEVLRVYCES | not soluble
6 | MGEYYHATVNGVVEYGAFVDLSEHVSGLIHESTYSGDPDLAVDDDVIVHLSAVRDNGDLSFEFVDPEEYRTEQRSLEHHHHHH | not soluble
7 | ASLYEKLGGAAAVDLAVEKFYGKVLADERVNRFFVNTDMAKQKQHQKDFMTYAFGGTDRFPGRSMRAAHQDLVENAGLTDVHFDAIAENLVLTLQELNVSQDLIDEVVTIVGSVQHRNDVLNR | soluble
8 | PLVCLADFKAHAQKQLSKTSWDFIEGEADDGITYSENIAAFKRIRLRPRYLRDMSKVDTRTTIQGQEISAPICISPTAFHSIAWPDGEKSTARAAQEANICYVISSYASYSLEDIVAAAPEGFRWFQLYMKSDWDFNKQMVQRAEALGFKALVITIDTPVLGNRRRDKRNQLNLEANILLKDLRALKEEKPTQSVPVSFPKASFCWNDLSLLQSITRLPIILKGILTKEDAELAMKHNVQGIVVSNHGGRQLDEVSASIDALREVVAAVKGKIEVYMDGGVRTGTDVLKALALGARCIFLGRPILWGLACKGEDGVKEVLDILTAELHRCMTLSGCQSVAEISPDLIQFSRL | soluble
9 | MKTYDPATAVKTTGEFNGKKRFAVLLMGTDTGALNRTEKRGRTDTMILAVVNPAKKRYTLVSIPRDTMAQMVGSSSFTTEKINAAYEIGGARMSMDSVSALINVPIKYYAVVNMGGIMKMIRYVGGINIRPTLSFEYGGYVFKKGKLTHMGGAGALAYSRMRYDDPRGDYGRQERQRQVITTLIKKAVSVSSLTNLDSILTSVSSNVRTNLPFSALQQIALNYRGCANSSSSDYLHGYNAMIDDAAYQVQPTEELQRISDLVRTELGLEHHHHHH | soluble
10 | MSLTFDFFEGPAGSGKTFSMVAHARQLIESDALGEGQRMLALTFMNGARRRLTSNLNAEASFRRKFDCLTFDSFAQSLAKRRSAKLTDEMRQQAEELGQFHGPCFLACELLNDVEVRRWVARTYPLVLVDEAQDLDVHRQGIVLGLKECCTTVVAADSFQCLSDGQETADFIDRLLRAGTTHTLTQSHRTNKAGLLAAALAVRNGEDIRAVLNEEAIGKTNRVHWIGEGIELVEVPATARNSGLLAWNLAFQLRLGSDDVALLTPDSANTIIRNAIGTVASKQRPWPHNAFSVSWEGGDSSVADELAEAIGFPDTAPYDEVCALLEEHSAQPMVKTVIRRIRRLQRVTGQSEFEKAQLVSFISDAVRTNTRLGFKKSAKIKAMSIHGAKNREFDRVIVLWPQSATGSDEHKRRLLYNAMTRTKNHCTVIVLGTGRLNSAPFAEGHHHHHH | soluble
11 | MSLRKIHVTIIAPYEGLAETFKRIQNEFEHLDMTIHIADLQQSLPLLTTEVQAQTDIFISRGGTAKVIRTRTEKPVVEVPISGFDILRMILLIQAEREQTEIIAFENISLSFTKVTELIETDIPITAVMKEEEVEPAIIAAKAAGRKMIVGDAITTSLANKHGLEGILITSGEESVRTALEQADLLGRKMNDSKQEGHHHHHH | soluble
12 | MGSDKIHHHHHHMTSSSRIAVRELPLFPLPEVVLFPTRPLPLHIFEFRYRIMMNTILESDRRFGVLMVDPVKGTIANVGCCAEIIHYQRLPDDRMKMLTLGQQRFRVLEYVREKPYRVGLVEWLEDHPPAKDLRPLATDVEQLLRDVVRLSAKITEQNIEIPEELPDLPTELSYWVASNLYGVAGEQQSLLEMQDTAARLEREAEILTTTRNHLAARSVLKDTFNPKL | not soluble
13 | VQSMSDESEKNSASPDAMRVGTRVLVRRQPEAATGVIVEDYAELTDTAGRGHDWAPVHRWAVALDDGRLVFADTEDLTVDIGTVDSE | not soluble
14 | MGSDKIHHHHHHMLLAPEDKLNERRAEYPGIEVHPLKFCSSELQAGHWKFLMGAIGNQAAYIRQLGNIMRKNRNNLSIQAIRDGIQNSSLSDSLKDLADMRLDFAEQYIDDQLNVGSLIRPGRMIVVDVRDEFIEKDEALGLFVVLLQIFSEAKYQGQSFNKLIVFDECHKYIDSPDLVKGLVETVREMRHKGTSVMIASQDPPSVPIELIQLSSQIILHKFNAPDWLKHIQKACIGLKSLTPEKLGALKPGEAFIWSSKASDNAFVSDAMKIQCRPRVTKHGGDTLTAI | not soluble
15 | MSLGLVLSTNVAHIQQDPGGDDRISGINKLPVATGIDVFIPGPNYGDGSGVVGDAIGDSLHHGGAHKAIYAYSREELDFFDPTYRNGYFGENLTTSGIVLEDLLINQQVRIGTTLLEVSIPRRPCRTFAHWLDIKGWLKTFTQRGLPGSYFRVIEEGHINPGDPIEVLQAPDHDITMSMAFRAKMGNKDLARRVVAANCLPARYHEELLKLIEGHHHHHH | not soluble
16 | MDHPDPNKWADCVHCGMCLEACPTYELTGHEQQSPRGRVHLIKSVAEGKLEVNEAFADPVFTCLDCRACETACPADVEVGGLIEEARGQIRQALPLEHHHHHH | soluble
17 | MKNNKVLVVVGPTAVGKTALGIDLAIKFNGEIISGDSQQVYQGLDIGTAKVTMAEQAQVPHHLIDVRKWTENFSVHDFVIEANQLIKEILDQGKVPIIVGGTGLYIQSLIEGYHLGGQENHEEMMKLREELSLLSDEELFAKVIKINPDISELNRRRAIRFLELQTFGSQDENLGSDYDFLLIGLNADRKVLYDRINQRVDQMMREGLLDEARTLYEQAPEVQAAKGIGYKEFFPYFSGDISLEEAVELVKRNSRRYAKRQLTWFKNRMSVEFEDVFSKNYPEPIFDKVTQFLNLEHHHHHH | not soluble
18 | MSKLLYLVAVDGGEWGERAADRAIHLAEKTHAKVKLVTVIDWPYIHPMIIEGAAAPLLDKEAEEMTVKAKVITPLVEKYNTLSLNITTELLWGDPAVILKEQVEVTNADMIFVGRQGRSSVVDTLFGSVANKLAHSVSVPIVLVP | not soluble
19 | MGSDKIHHHHHHMSSAPIIYALSNNSLLIDAAHLDANNVLTIQKKIWALAAHCKNTAEFTDLVAGMNSLTLYLKSSAGLTKWLEALPLLWDELKSSTFTGKHHLIETLYEGEDLAYVARFHNLSIDEVISIHSKAQYHVLFLGFQPGFAYLHGLDTRLHTPRRAEPRIKVPKGAVAIGAAQTGIYPSDTPGGWHIIGHTNTTLFNSSHSQPCLMQPGDTLEFVALKNQGAGA | not soluble
20 | MVWDVETAKRFLEIIKDEPIYYPALIALHTGMRAGEILSLKWCDVNFETRVISIVKSERKNRGLKTVNLKTKTSKRAVYMNDILYKELKNLYEITKPKPDDFVCPRLPTGNLTVNYLSRKFKKLVKKHNFPLIRFHDLRHTFATLMLSLGVNTKIVAEILGHSDIKLTADTYSHVLPTMQEEAMKEFVKLWKLEHHHHHH | not soluble
21 | EIVHLGLEDNDFDNDINPLETTGAYLSPKEFKEALLDKDTVVLDTRNDYEYDLGHFRGAIRPDIRNFRELPQWVRDNKEKFMDKRVVVYCTGGVRCEKFSGWMVREGYKDVGQLHGGIATYGKDPEVQGELWDGKMYVFDERIAVDVNHVNPTIVGKDWFDGTPCER | not soluble
22 | GSHMSQLYASLFYQRDVTEIFSDRALVSYMVEAEVALAQAQAQVGVIPQSAATVIQRAAKTAIDKIDFDALATATGLAGNIAIPFVKQLTAIVKDADEDAARYVHWGATSQDILDTACILQCRDALAIVQNQVQQCYETALSQAQTYRHQVMMGRTWLQQALPITLGHKLARWASAFKRDLDRINAIKARVLVAQLGGAVGSLASLQDQGSIVVEAYAKQLKLGQTACTWHGERDRIVEIASVLGIITGNVGKMARDWSLMMQTEIAEVFEPTAKGRGGSSTMPHKRNPVAAASVLAAANRVPALMSSIYQSMVQEHERSLGAWHAEWLSLPEIFQLTAGALERTLDVLKGMEVNAENMHQNIECTHGLIMAEAVMMALAPHMGRLNAHHVVEAACKTAVAEQKHLKDIISQVDEVKQYFNPSQLDEIFKPESYLGNIQDQIDAVLQEAKGEAK | soluble
23 | MDRRQKRLIFSTITSKMNLSEEVDLEDYVARPDKISGADINSICQESGMLAVRENRYIVLAKDFEKAYKTVIKKDEQEHEFYK | soluble
24 | MGSDKIHHHHHHMVQVDNTFYDGSAYDPETVRFFDVAQEGAQVRQIGGLVAQGALSAFEGLRPRSVVVMLDGQIHRSCVRLVETLHSPMRQPLVITSTLPHYIGALDVLIVITDNGADEKALKALITASQRGVATLLIGPSSGPLIDESPQDTFVLPTLPTAAGLSPARIVASISTLLDLLEADPSIISDRLEHLADCIDEEVESLSPERDELVNPGRKLRAYVDHARIVHTGRTDVGLAIANVIAPIWTRRGLVSAVLDFPELMESLPELRGPEPITDDIFHDPFIDDEPGVVPFRAVVWAEEEPGIPDAMAQSCDGPSKGALTQALRLLVRGQSATTYSIEEKDL | not soluble

— the DeepSol protein solubility set
